Data published in EP1287147B1.

What was measured:
[1] = target: human CD3 (CD3 epsilon of the T-cell receptor complex) on Jurkat cells (human) (UniProt P07766); assay: competition with 125I-UCHT1 tracer on Jurkat cells; competitor at 100 nM
[2] = target: human CD3 (CD3 epsilon of the T-cell receptor complex) on Jurkat cells (human) (UniProt P07766); assay: competition with 125I-UCHT1 tracer on Jurkat cells; competitor at 1 nM
[3] = target: human CD3 (CD3 epsilon of the T-cell receptor complex) on Jurkat cells (human) (UniProt P07766); assay: cell-based or functional assay

“UCHT1 monoclonal antibody (murine anti-human CD3, IgG1)” gave a % of 125I-UCHT1 tracer bound (% of tracer bound without competitor) [1] of 0 and a % of 125I-UCHT1 tracer bound (% of tracer bound without competitor) [2] of 80.
Substance “sFv-DT390 (DT390-sFv(UCHT1'), anti-CD3 single-chain immunotoxin with truncated diphtheria toxin)” has a ratio of IC50 of sFv-DT390 to IC50 of UCHT1-CRM9 [3] of 16 fold.
“scUCHT1 (divalent chimeric anti-human CD3 single chain antibody, UCHT1 VL-linker-VH fused to human IgM Fc CH2-CH4) (Fc fusion)” showed a % of 125I-UCHT1 tracer bound (% of tracer bound without competitor) [1] of 0 and a % of 125I-UCHT1 tracer bound (% of tracer bound without competitor) [2] of 80.
